Measured values from article PMC5023487 (Traffic (Copenhagen, Denmark), 2016).
Where “and” joins values, the source holds several entries; their conditions need not be identical. Equal values may be shown once.

Target: the molecule itself
Assay: SEC

B1: Recombinant His6-Sec18p (enzyme, S. cerevisiae, UniProt P18759 1-758, looked up)
chain: MFKIPGFGKAAANHTPPDMTNMDTRTRHLKVSNCPNNSYALANVAAVSPNDFPNNIYIIIDNLFVFTTRHSNDIPPGTIGFNGNQRTWGGWSLNQDVQAKAFDLFKYSGKQSYLGSIDIDISFRARGKAVSTVFDQDELAKQFVRCYESQIFSPTQYLIMEFQGHFFDLKIRNVQAIDLGDIEPTSAVATGIETKGILTKQTQINFFKGRDGLVNLKSSNSLRPRSNAVIRPDFKFEDLGVGGLDKEFTKIFRRAFASRIFPPSVIEKLGISHVKGLLLYGPPGTGKTLIARKIGTMLNAKEPKIVNGPEILSKYVGSSEENIRNLFKDAEAEYRAKGEESSLHIIIFDELDSVFKQRGSRGDGTGVGDNVVNQLLAKMDGVDQLNNILVIGMTNRKDLIDSALLRPGRFEVQVEIHLPDEKGRLQIFDIQTKKMRENNMMSDDVNLAELAALTKNFSGAEIEGLVKSASSFAINKTVNIGKGATKLNTKDIAKLKVTREDFLNALNDVTPAFGISEEDLKTCVEGGMMLYSERVNSILKNGARYVRQVRESDKSRLVSLLIHGPAGSGKTALAAEIALKSGFPFIRLISPNELSGMSESAKIAYIDNTFRDAYKSPLNILVIDSLETLVDWVPIGPRFSNNILQMLKVALKRKPPQDRRLLIMTTTSAYSVLQQMDILSCFDNEIAVPNMTNLDELNNVMIESNFLDDAGRVKVINELSRSCPNFNVGIKKTLTNIETARHDEDPVNELVELMTQSA
  stoichiometry N: 6 and 2
